Target: the molecule itself
Assay: SEC-MALS

B1: N-terminal A20 protein bearing the OTU domain (residues 1-370), wild type (domain or fragment, UniProt P21580 1-370, looked up)
chain: MAEQVLPQALYLSNMRKAVKIRERTPEDIFKPTNGIIHHFKTMHRYTLEMFRTCQFCPQFREIIHKALIDRNIQATLESQKKLNWCREVRKLVALKTNGDGNCLMHATSQYMWGVQDTDLVLRKALFSTLKETDTRNFKFRWQLESLKSQEFVETGLCYDTRNWNDEWDNLIKMASTDTPMARSGLQYNSLEEIHIFVLCNILRRPIIVISDKMLRSLESGSNFAPLKVGGIYLPLHWPAQECYRYPIVLGYDSHHFVPLVTLKDSGPEIRAVPLVNRDRGRFEDLKVHFLTDPENEMKEKLLKEYLMVIEIPVQGWDHGTTHLINAAKLDEANLPKEINLVDDYFELVQHEYKKWQENSEQGRREGHAQ
stoichiometry N: 2

— PMC3665706 (Immunity, 2013)
